Data set [1] concerns the target T1, RuvAMpn (Mycoplasma pneumoniae M129 (ATCC 29342), UniProt P75243 1-206).
T1 sequence: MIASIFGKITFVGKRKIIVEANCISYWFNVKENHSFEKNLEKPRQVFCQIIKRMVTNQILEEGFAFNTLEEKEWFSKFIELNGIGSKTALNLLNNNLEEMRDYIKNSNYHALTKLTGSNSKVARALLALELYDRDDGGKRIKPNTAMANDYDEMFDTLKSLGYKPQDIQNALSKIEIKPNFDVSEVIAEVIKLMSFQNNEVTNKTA
Briefly: EMSA; no Mg2+; two complexes (I and II); 20 mM Tris-HCl pH 7.5, 1 mM DTT, 1 mM EDTA, 12.3 nM DNA, 10 ul, on ice 10 min; 8% PAGE in 0.5x TBE; +/- 10 mM Mg2+. Particulars: protein: recombinant; tags: N-terminal H10 (pET-16b); chain copies: 4; four-way Holliday junction HJ11:HJ12:HJ13:HJ14.

The target of data set [2] is T2, RuvAMge (Mycoplasma genitalium G37 (ATCC 33530), UniProt Q49424 1-205). Put plainly: EMSA; no Mg2+; single complex up to 4 uM protein; 20 mM Tris-HCl pH 7.5, 1 mM DTT, 1 mM EDTA, 12.3 nM DNA, 10 ul, on ice 10 min; 8% PAGE in 0.5x TBE; +/- 10 mM Mg2+. As to conditions: protein: recombinant; tags: N-terminal H10 (pET-16b); chain copies: 4; four-way Holliday junction HJ11:HJ12:HJ13:HJ14.

The target in the next data set is RecUMge (Mycoplasma genitalium, UniProt Q49422 1-166). Briefly: EMSA; on ice, no BSA; three major and one minor complex at 500 nM; 20 mM Tris-HCl pH 7.5, 1 mM DTT, 1 mM EDTA, 12.3 nM DNA, 10 ul, on ice 10 min; 8% PAGE in 0.5x TBE; +/- 10 mM Mg2+.
Data set [3] concerns the target T1, RuvAMpn. Put plainly: EMSA; no Mg2+; part of the complexes is with residual ss HJ11; 20 mM Tris-HCl pH 7.5, 1 mM DTT, 1 mM EDTA, 12.3 nM DNA, 10 ul, on ice 10 min; 8% PAGE in 0.5x TBE; +/- 10 mM Mg2+. As to conditions: protein: recombinant; tags: N-terminal H10 (pET-16b); chain copies: 4; 5' overhang 1 nt on HJ11rv.
The target of data set [4] is T2, RuvAMge. The description is as above. As to conditions: protein: recombinant; tags: N-terminal H10 (pET-16b); chain copies: 4; 5' overhang 1 nt on HJ11rv.
The target of data set [5] is T1, RuvAMpn. Put plainly: EMSA; no Mg2+; efficiency similar to HJ; 20 mM Tris-HCl pH 7.5, 1 mM DTT, 1 mM EDTA, 12.3 nM DNA, 10 ul, on ice 10 min; 8% PAGE in 0.5x TBE; +/- 10 mM Mg2+. Particulars: protein: recombinant; tags: N-terminal H10 (pET-16b); single strand.

B1: HJ 1.1 (structured_DNA)
DNA 1: GCGACGTGATCACCAGATGATTGCTAGGCATGCTTTCCGCAAGAGAAGC
DNA 2: GGCTTCTCTTGCGGAAAGCATGCCTAGCAATCCTGTCAGCTGCATGGAAC
DNA 3: GGTTCCATGCAGCTGACAGGATTGCTAGGCTCAAGGCGAACTGCTAACGG
DNA 4: ACCGTTAGCAGTTCGCCTTGAGCCTAGCAATCATCTGGTGATCACGTCGC
Consider B1, for which the binding result with RuvAMpn [1], with RuvAMge [2] and with RecUMge was “binds” in each case.

B2: HJ11/HJ11rv (dsDNA)
DNA 1: GCGACGTGATCACCAGATGATTGCTAGGCATGCTTTCCGCAAGAGAAGC
DNA 2: GGCTTCTCTTGCGGAAAGCATGCCTAGCAATCATCTGGTGATCACGTCGC
On to B2, for which the binding result in the data set with RuvAMpn [3] and in the data set with RuvAMge [4] was “binds” each time.
On to GCGACGTGATCACCAGATGATTGCTAGGCATGCTTTCCGCAAGAGAAGC (ssDNA) [HJ11], for which, in the data set with RuvAMpn [5], the binding result is listed as “binds”.

Source of the values: paper PMC3364216, “The RuvA Homologues from Mycoplasma genitalium and Mycoplasma pneumoniae Exhibit Unique Functional Characteristics”.
